Reference: the domain aggregation screens of Martell et al. (2025)

Experiment: soluble fraction after stress (log2 fold change); higher = more stays soluble; pooled small domains, quantitative proteomics
Settings: stress: 50 degC
In short: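 The stress applied to every library was 50°C. These custom libraries of small protein domains were pooled and measured at high throughput with quantitative proteomics as the read-out. Aggregation propensity is expressed as the base-two logarithm of the fold change in how much of each protein remains soluble. The higher the value, the more of that protein stays in solution.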

Sequence | soluble fraction (log2)
HMTMMTFGEKLQNARKGAGLSQEQLAEKLSVSRSAVAKWENDNGMPDIDNLKAIAQLLDVSIDYLLEN | 0.133
HMSSQADEEALFKLLAANPYSDEQLEEIRIAIGSGIAYKDIIRIADIGNTAERMKQLRLEFTKDTAN | -0.0428
HMSLNSELIARIENLIASIEDKRSWGYGFAESVLGQVQAGATLSPRQLEIIAKLEKENSYSVQLERQ | -0.765
HMNKKAAYKDMAGYFAEMKSKDAADILSRLKDEDIIGIFNEMPRDMVAEMLQKMDRDKATTLTRKML | 0.385
HMEYSAAYDRELESIFNLTERGKWEEAEAEVGLLLQQYPEDKTLLRISEWVATQKTILREQAIEDRIRS | 0.186
HMNNKSDLLFNHLRQRIATMENGTIFPSVRQLMTEYNVSQSTVSTAIRSLKELGLLEALSRQGMVVRKE | -0.476
HMQIIGEQNQKDFIALFGAILRMRNLLLSFDEFKGNELISERDLQDYLGRYQDLRDEWRNKRRER | 0.0518
HMPEAITLRDLKTYSKQAASGYLDDHQLVLVEKEAHSEDVPEGQVIKQKPGAGASVKPGDKVEVTFSLGPE | 0.0136
HMKPSTETLYATARINVRAAADTSAEKLGSIEMGEAVVRTGTDGDWSIIEYNGSTGYVKSEYLTANAGDAT | -0.0962
HMELSPVDLGERLKIARETANFTQDAAAKAVGIARTTLVSIEKGQRTARLDEIQALSRFYGVSANALLR | -0.499
HMSYFIFDGVLNLGKQYELKGEESSHITKSRRLRPGDSFLIQDQEGQRFEAILKSFDRNSLIFTPHKPTA | -0.0922
HMSMEQAKAEEIEKLGDNAPERLQAAALFAEKFFPQDVMDAVYKITETADGVRAIEHIMQTVK | -1.28
HMLQEFTLELATAVVQEFRDQPGALINALHKLQETFGYVDEAAMPVLARLFNLSRAEVHGVASFYHDFRRS | -1.49
HMSESKYKMIKNWIKSKILDGTLVPNQKIYSESELMEIFDVSRHTVRLAIGELVSEGYLFKRQGTGTFVTQ | -0.577
HMHDWDITTAAKPEKIFELFSDIPVLETGLKHGTVTLLIDHEPYEVTTFRVDGNYTDGRHPDSVAFT | -0.0484
HMEGLEKDDGGYYFEKDNGERARNEWVYVEYEGKGYWYYMTDYGYPLRSAITPDGYKVNSNGHWIDEGN | -0.825
HMSWGDVKLTMWGAEEDQTMLREMADAFIEQNADKGNVTIEIGVQSESSAKDTVLADPESAADVFA | 0.00693
HMSHYEYKVGDRVNLLDYDDFGILYKEKDNFYNVVVYYNGEFVEVNVKRITLEVAAKELYPEGYDLSTLFV | -4.14
HMTYSAFITARNKRIAEEYSVLLDSLNISNNVIYRLGSWVVEVNVSDHSRAIDEIYSYERSGRIDKV | -0.498
HMVTEKPLYRDELMDHDTVWVEPISMDSHLRMELRGWYHVKNRFVENEVGQRFYFDFYDIKWLAFTNGP | -2.08
HMGTKDVNAAPSAVGRTYDEAIEILNGYKAGYLEEYSDTVPKGTVISQSVQDGQVVIVVSLGPKPS | 0.0391
HMLTRRQSEVLDFIRQFAESESMPPTLHEIAKGMGFSSDNAARDHVRALARKGAIDLVGGTSRGIRLR | -0.354
HMKEIPTKKGDMLEIYEANGKYILKYPTFNITMPEVVKEIPKEAVDSYLAGKHDGEELINYANFGFWKS | -0.185
HMRHKSNRRLTAAHQIEQQIQKLLMENTMEAKELKESLNFAAKDIDTVLSWLVDKDKVRINAINQYYWT | -0.767
HMENRREYQKAIDYLSDQIRAGTLTVGSRLPTERAIAEALGISRNSTREALRTMENMGMIESKQGSGHYLT | -0.00154
HMDDATTQLADRLLDLRRKAGYSQEQLADLLGVSRQAISKWEGAQGRPEVDNVVKLAQIYRVSTDFILTGS | -0.552
HMGQISDEETLKTVASRIIDANPDEARKYRSGKTGLLGFFVGQVMKATQGEANPKLASRIVKELLE | -0.0262
HMQMSDTAAIGKIVDEVFAENPAALEDYAKGKTNVVDWLTGQVMKKSRGQANPGIASELVQKRLADF | 0.122

Sequence | soluble fraction (log2)
HMEDIAAIAQRIQGLRDIVGISVEEMAKALDISEQEYREYEKGETDFSFSFLYTVANVLGINITDLI | -0.709
HMVNAVKFAIEKMPYKYSSLLTLKYVMGYSGKEIAEITGLSETNVRQQLLKGRKLLESMLEE | -2.43
HMDEPVDRLSPREQEVLALMAEGRSNAAIAHRLSITEKAVAKHINSIFTKLDLPLDEDDHRRVRAVLAWLR | -0.274
HMPQKIVIQKGVVIKKRERSDAWQIYITVKGKKPIRKSANTDNVEKAKQMALTLFAEKNYKVENNLPIQ | -1.18
HMRVVGRNHYDDADLAHIRSVIQLEARPLNVSRIARTLANEYPKHTYWSYLSFLQKNLRDRPDLF | -1.83
HMEEFGRRLKERMIDKNMTEAELAQKTELWSSILTSYLKGERFPGYYTLLRIAEALDVSIDFLLGLRDEPE | -1.54
HMPASVSAIRKYLGGGSFKGVGPALAKRIVDAFGEYTIETIENDPKQLAKVKGVSEKMALEINTQ | -0.0317
HMITPNQAAVTLKVSTSTLRRWSSDFEPFLSPRKGVKRLYTIEDIATLKRIQGLYKQGMNTAQVQA | -2.1
HMWQVVEVDYGTFMSMTEDGQVGRVEIQEQENLILFTDQEETTVYKTAMVDDPDLTARLHDAGIPFYGQE | -0.64
HMQRVSDKVAAQLRVLVQEQQLKPGDRLPAERALAVQLGVSRTALREAIAQLASQGLLTARVGGGTYVAEP | -0.307
HMGAEWTEMRVWTSTSGSKVTAEASSLTNGQVTLETKSGKRITLSIRKLVEADQKFLEAHFSK | -0.947
HMGPGSYVVNVKPYAYVSINGRDYGRTPVGPIRLDPGTYKVVFTHEHRPSFSRTIVVEAGRETFETFPYPG | -0.29
HMSHGFVHLKGAVQHPGIYPVKENTRWDEVVKAAGGLTAAADIQQVNLAKVASDQESLYVPEKGET | 0.098
HMVPDGFDQLTEREYQVAMAVGKGLNNKEIASQLGLGERTVKAHLTTTFEKLHVRDRVQLALIVNRL | -0.556
HMQMSDTGAIEAMVKEALDENPQAIEDFKNGKGKALGFLMGQVMKKSKGQANGGIVNKLIKEELQKRIG | 0.181
HMERPYNGKQMEYHEGGVEKKETLFVEGGLSRVIQWDESGQKRSEVNISPTGVRREQYWDSSGKAIAKPS | 0.228
HMTKPAEVRIDELMNAAQTLFLAKGVEATTISEIIASVGVAKGTFYHYFESKQHIVEALKKRYID | -1.49
HMRSGFAFSEEEIKHLDNIVSPLLIKGQSIHHISIFHKDEVMMSERTLYSYVNNGLFSARNIDMPRTVRMR | 0.14
HMPPDIKVVGVTVASDPRASFAMLSSNGKTLSYRVNDLIEGTEYHLIKVEAAAITIATAGGQSTQIAF | -0.585
HMTQFSLTTEEINVLKKSYSEFTDSDKELFNKILEKYNKFKNESSNDIAFEAKILEKLQEIENFYE | -0.126
HMQPLRQGDFVTSEVVKVQDGTAVLRTAQGTLLSASLTGNLGLLPGDRVETVVVEASPGRFVLRVLDIIR | -0.15
HMDYYDTLGVPRNASQSDIKKAYKKQSMQHHPDRTGGDDTKFKDVNEAYQVLSNSEKKQMYDQFGTA | 0.0532
HMQNESGLFTMSDLWEAGLMGSENASRKRAAVGAFLGIGFGNGKQFLKRLNHFGVTKEEWESALEQLGE | -0.684
HMEDISQHAVKKLVQEMVMAEDPRDPLSDQQIAENLSRLGLKVARRTVAKYRAMLGIQPSNRRRK | -0.0553
HMGGLALAEREVVEWLSQRNLLPSPDVVARAAAHPDGLGWLERSLAVLEGPRLFLGLGDLVPEP | -0.411
HMREKMKGKILDYNFQESRGIISADDGNRYSFENSQWKGTQSPKVNQIVDFEIDGQNAKDIYLDK | 0.162
HMADVIKLVNTSVLNVRSGAGINYSKIGSLTQGTKVNIISESNGWSKINYNGKIGYISSQYVSEVS | -0.206
